Reference: patent US20230159603A1 (XILIO DEVELOPMENT, published 2023)

B1: rhIL-12RB2-Fc (Fc fusion, human, UniProt Q99665 24-622, looked up, not shown: a dimerising Fc or GST)
chain: KIDACKRGDVTVKPSHVILLGSTVNITCSLKPRQGCFHYSRRNKLILYKFDRRINFHHGHSLNSQVTGLPLGTTLFVCKLACINSDEIQICGAEIFVGVAPEQPQNLSCIQKGEQGTVACTWERGRDTHLYTEYTLQLSGPKNLTWQKQCKDIYCDYLDFGINLTPESPESNFTAKVTAVNSLGSSSSLPSTFTFLDIVRPLPPWDIRIKFQKASVSRCTLYWRDEGLVLLNRLRYRPSNSRLWNMVNVTKAKGRHDLLDLKPFTEYEFQISSKLHLYKGSWSDWSESLRAQTPEEEPTGMLDVWYMKRHIDYSRQQISLFWKNLSVSEARGKILHYQVTLQELTGGKAMTQNITGHTSWTTVIPRTGNWAVAVSAANSKGSSLPTRINIMNLCEAGLLAPRQVSANSEGMDNILVTWQPPRKDPSAVQEYVVEWRELHPGGDTQVPLNWLRSRPYNVSALISENIKSYICYEIRVYALSGDQGGCSSILGNSKHKAPLSGPHINAITEEKGSILISWNSIPVQEQMGCLLHYRIYWKERDSNSQPQLCEIPYRVSQNSHPINSLQPRVTYVLWMTALTAAGESSHGNEREFCLQGKAN
B2: recombinant human IL-12 (rhIL-12) control (ligand)
chain 1: IWELKKDVYVVELDWYPDAPGEMVVLTCDTPEEDGITWTLDQSSEVLGSGKTLTIQVKEFGDAGQYTCHKGGEVLSHSLLLLHKKEDGIWSTDILKDQKEPKNKTFLRCEAKNYSGRFTCWWLTTISTDLTFSVKSSRGSSDPQGVTCGAATLSAERVRGDNKEYEYSVECQEDSACPAAEESLPIEVMVDAVHKLKYENYTSSFFIRDIIKPDPPKNLQLKPLKNSRQVEVSWEYPDTWSTPHSYFSLTFCVQVQGKSKREKKDRVFTDKTSATVICRKNASISVRAQDRYYSSSWSEWASVPCS
chain 2: RNLPVATPDPGMFPCLHHSQNLLRAVSNMLQKARQTLEFYPCTSEEIDHEDITKDKTSTVEACLPLELTKNESCLNSRETSFITNGSCLASRKTSFMMALCLSSIYEDLKMYQVEFKTMNAKLLMDPKRQIFLDQNMLAVIDELMQALNFNSETVPQKSSLEEPDFYKTKIKLCILLHAFRIRAVTIDRVMSYLNAS
notes: also called wild-type rhIL-12

Legend:
AK384 = molecular target: T1, AK384; test: SPR, IL-12 receptor immobilised, IL-12 construct flowed, 25 C, FIGS. 35A-35D
T1 construct: Masked IL-12 heterodimer, IL-12Rβ1 (24-237) mask; tested uncleaved
Protocol: (§1) Sensor Chips were coated and immobilized with IL-12 receptors. Dilutions of IL-12 constructs were flowed over the chips with the immobilized IL-12 receptors to determine the on rate at 25 degrees C. At equilibrium (approximately 3-4 minutes), the flow buffer was changed to PBST, to determine the off rates over 6 minutes. Between each run the chip was regenerated. The tables represent the SPR data (FIGS. 34 and 35).

rhIL-12RB1-Fc = rhIL-12RB1-Fc (human, UniProt P42701 24-545, limits assumed); test: SPR, IL-12 receptor immobilised, IL-12 flowed, 25 C, FIGS. 34A-34D
Protocol: as §1

rhIL-12RB2-Fc = molecular target: B1; test: SPR, IL-12 receptor immobilised, IL-12 flowed, 25 C, FIGS. 35A-35D
Protocol: as §1

Row | Binder | binding result (AK384) | binding result (rhIL-12RB1-Fc) | binding result (rhIL-12RB2-Fc)
1 | B1 | binds | – | –
2 | B2 | – | binds | binds
